Tests used:
[1] = biological target: human PD-1 on primary human T cells (human) (UniProt Q15116); test: cell-based or functional assay
[2] = biological target: T1, human PD-1 (hPD-1) monomer (human, UniProt Q15116 25-167); test: SPR, human PD-1, 25 C
T1 construct: also called hu-PD-1; not shown: His tag (His-tagged monomer)

[3] = biological target: T1, human PD-1 (hPD-1) monomer; test: SPR (ProteOn), hPD-1 monomer over amine-coupled IgG, 25 C
Experimental: (§1) All interaction analysis was performed on label-free biosensors at 25° C. unless stated otherwise. Surface plasmon resonance biosensors (ProteOn-XPR™ from BioRad™, and Biacore 2000™ and Biacore T200™ from GE Life Sciences) were used to study human and cynomolgus monkey PD-1 and a biolayer interferometry biosensor (Octet-Red384, Fortebio/Pall Life Sciences) was used to study mouse PD-1. ProteOn experiments were performed in PBS pH 7.4+0.01% Tween-20 (PBST) running buffer. Biacore experiments were performed in 10 mM Hepes pH 7.4, 150 mM NaCl, 0.05% Tween-20 (HBST+) and Octet experiments were performed in HBST+ with 1 g/l BSA. The ProteOn data were processed in the ProteOn Manager software, the Biacore data were processed in Biaevaluation, and the Octet data were simply aligned to zero in the control software.
(§2) The surfaces for these experiments were prepared in three steps; (1) the ligand channels were minimally activated for two min using a freshly prepared mixture of the activation reagents at final 0.8 mM EDC and 0.2 mM sulfo-NHS in water, (2) the IgGs were coupled for three min at 15 μg/ml in 10 mM sodium acetate pH 4.5, and (3) excess reactive esters were blocked for three min with 1 M ethanolamine HCl pH 8.5. […] Association and dissociation times were 3 min and 20 min, respectively and all analytes were injected in duplicate binding cycles. Surfaces were regenerated with a cocktail of 2:1 v/v Pierce IgG elution buffer (pH 2.8):4 M NaCl.

[4] = biological target: T1, human PD-1 (hPD-1) monomer; test: SPR (ProteOn), hPD-1 monomer over amine-coupled IgG, 25 C; 5% rule
Experimental: as §2
N=2 refers to two independent experiments on different chips.

[5] = biological target: T1, human PD-1 (hPD-1) monomer; test: SPR (Biacore T200), hPD-1 monomer over anti-hFc-captured hIgG4, 25 C
Experimental: as §1
(§3) The hPD-1 was injected at active concentrations of 0, 10, and 100 nM for three minutes allowing an 18-min dissociation phase. The capture surfaces were regenerated with 75 mM phosphoric acid after each binding cycle.

[6] = biological target: T1, human PD-1 (hPD-1) monomer; test: SPR (Biacore T200), hPD-1 monomer over anti-hFc-captured hIgG4, 37 C
Experimental: as §3

Sequence of human PD-1 on primary human T cells (human) (Q15116 25-288 limits assumed): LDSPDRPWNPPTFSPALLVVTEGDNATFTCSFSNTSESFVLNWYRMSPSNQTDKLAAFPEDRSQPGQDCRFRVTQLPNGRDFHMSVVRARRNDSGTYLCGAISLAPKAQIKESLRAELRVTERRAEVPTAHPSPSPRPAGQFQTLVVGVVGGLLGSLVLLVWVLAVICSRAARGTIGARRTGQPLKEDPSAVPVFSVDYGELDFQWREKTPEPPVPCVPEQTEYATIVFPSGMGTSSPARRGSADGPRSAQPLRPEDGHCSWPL
T1 sequence (Q15116 25-167 limits assumed): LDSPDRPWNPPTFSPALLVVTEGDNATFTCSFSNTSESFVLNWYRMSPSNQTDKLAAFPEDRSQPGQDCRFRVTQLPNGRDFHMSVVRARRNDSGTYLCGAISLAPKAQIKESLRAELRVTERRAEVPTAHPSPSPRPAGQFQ

EH12.1 (BD Biosciences mouse anti human anti-PD-1 antibody, mouse isotype IgG1 Kappa)
IFNγ (pg/ml), MLR day 5, antibody 0.0001 µg/ml [1]: 1700 pg/mL | IFNγ (pg/ml), MLR day 5, antibody 0.001 µg/ml [1]: 2280 pg/mL | IFNγ (pg/ml), MLR day 5, antibody 0.01 µg/ml [1]: 4380 pg/mL | IFNγ (pg/ml), MLR day 5, antibody 0.1 µg/ml [1]: 4730 pg/mL | IFNγ (pg/ml), MLR day 5, antibody 1 µg/ml [1]: 9910 pg/mL | IFNγ (pg/ml), MLR day 5, antibody 10 µg/ml [1]: 15100 pg/mL | TNF (pg/ml), MLR day 5, antibody 0.0001 µg/ml [1]: 753 pg/mL | TNF (pg/ml), MLR day 5, antibody 0.001 µg/ml [1]: 687 pg/mL | TNF (pg/ml), MLR day 5, antibody 0.01 µg/ml [1]: 859 pg/mL | TNF (pg/ml), MLR day 5, antibody 0.1 µg/ml [1]: 745 pg/mL | TNF (pg/ml), MLR day 5, antibody 1 µg/ml [1]: 979 pg/mL | TNF (pg/ml), MLR day 5, antibody 10 µg/ml [1]: 1950 pg/mL

B1: mAb2 (antibody, V domains shown)
VH: QVQLVQSGAEVKKPGASVKVSCKASGYTFTSYWINWVRQAPGQGLEWMGNIYPGSSLTNYNEKFKNRVTMTRDTSTSTVYMELSSLRSEDTAVYYCARLLTGTFAYWGQGTLVTVSS
VL: DIVMTQSPDSLAVSLGERATINCKSSQSLWDSGNQKNFLTWYQQKPGQPPKLLIYWTSYRESGVPDRFSGSGSGTDFTLTISSLQAEDVAVYYCQNDYFYPLTFGGGTKVEIK
notes: Variable regions only
Kd [2]: 2.22 nM

B2: mAb1 (antibody, V domains shown)
VH: QVQLVQSGAEVKKPGASVKVSCKASGYTFTSYWINWVRQAPGQGLEWMGNIYPGSSLTNYNEKFKNRVTMTRDTSTSTVYMELSSLRSEDTAVYYCARLLTGTFAYWGQGTLVTVSS
VL: DIVMTQSPDSLAVSLGERATINCKSSQSLWDSGNQKNFLTWYQQKPGQPPKLLIYWTSTRESGVPDRFSGSGSGTDFTLTISSLQAEDVAVYYCQNDYFYPLTFGGGTKVEIK
notes: Variable regions only
Kd [2]: 64.2 nM

B3: mAb3 (antibody, V domains shown)
VH: QVQLVQSGAEVKKPGASVKVSCKASGYTFTSYWINWVRQAPGQGLEWMGNIYPGSSLTNYNEKFKNRVTMTRDTSTSTVYMELSSLRSEDTAVYYCARLLTGTFAYWGQGTLVTVSS
VL: DIVMTQSPDSLAVSLGERATINCKSSQSLWDSGNQKNFLTWYQQKPGQPPKLLIYWTSYRESGVPDRFSGSGSGTDFTLTISSLQAEDVAVYYCQNDYFYPHTFGGGTKVEIK
notes: Variable regions only
Kd [2]: 1.43 nM

B4: mAb5 (antibody, V domains shown)
VH: QVQLVQSGAEVKKPGASVKVSCKASGYTFTSYWINWVRQAPGQGLEWMGNIYPGSSLTNYNEKFKNRVTMTRDTSTSTVYMELSSLRSEDTAVYYCARLSTGTFAYWGQGTLVTVSS
VL: DIVMTQSPDSLAVSLGERATINCKSSQSLWDSGNQKNFLTWYQQKPGQPPKLLIYWTSTRESGVPDRFSGSGSGTDFTLTISSLQAEDVAVYYCQNDYFYPLTFGGGTKVEIK
notes: Variable regions only
Kd [2]: 12.8 nM

B5: mAb6 (antibody, V domains shown)
VH: QVQLVQSGAEVKKPGASVKVSCKASGYTFTSYWINWVRQAPGQGLEWMGNIYPGSSLTNYNEKFKNRVTMTRDTSTSTVYMELSSLRSEDTAVYYCARLSTGTFAYWGQGTLVTVSS
VL: DIVMTQSPDSLAVSLGERATINCKSSQSLWDSGNQKNFLTWYQQKPGQPPKLLIYWTSYRESGVPDRFSGSGSGTDFTLTISSLQAEDVAVYYCQNDYFYPLTFGGGTKVEIK
notes: Variable regions only
Kd [2]: 1.16 nM

B6: mAb7 IgG1 AAA (antibody, V domains shown)
VH: QVQLVQSGAEVKKPGASVKVSCKASGYTFTSYWINWVRQAPGQGLEWMGNIYPGSSLTNYNEKFKNRVTMTRDTSTSTVYMELSSLRSEDTAVYYCARLSTGTFAYWGQGTLVTVSS
VL: DIVMTQSPDSLAVSLGERATINCKSSQSLWDSGNQKNFLTWYQQKPGQPPKLLIYWTSYRESGVPDRFSGSGSGTDFTLTISSLQAEDVAVYYCQNDYFYPHTFGGGTKVEIK
notes: also called mAb7-AAA
Kd [3]: < 0.086 nM | kon [3]: 497000 M⁻¹ s⁻¹ | koff [4]: < 4.3e-05 s⁻¹

B7: mAb8 (antibody, V domains shown)
VH: QVQLVQSGAEVKKPGASVKVSCKASGYTFTSYWINWVRQAPGQGLEWMGNIYPGSSLTNYNEKFKNRVTMTRDTSTSTVYMELSSLRSEDTAVYYCARLSTGTFAYWGQGTLVTVSS
VL: DIVMTQSPDSLAVSLGERATINCKSSQSLWDSTNQKNFLTWYQQKPGQPPKLLIYWTSTRESGVPDRFSGSGSGTDFTLTISSLQAEDVAVYYCQNDYFYPLTFGGGTKVEIK
notes: Variable regions only
Kd [2]: 17.4 nM

B8: mAb9 (antibody, V domains shown)
VH: QVQLVQSGAEVKKPGASVKVSCKASGYTFTSYWINWVRQAPGQGLEWMGNIYPGSSITNYNEKFKNRVTMTRDTSTSTVYMELSSLRSEDTAVYYCARLTTGTFAYWGQGTLVTVSS
VL: DIVMTQSPDSLAVSLGERATINCKSSQSLWDSGNQKNFLTWYQQKPGQPPKLLIYWTSTRESGVPDRFSGSGSGTDFTLTISSLQAEDVAVYYCQNDYFYPLTFGGGTKVEIK
notes: Variable regions only
Kd [2]: 13.5 nM

B9: mAb10 (antibody, V domains shown)
VH: QVQLVQSGAEVKKPGASVKVSCKASGYTFTSYWINWVRQAPGQGLEWMGNIYPGSSITNYNEKFKNRVTMTRDTSTSTVYMELSSLRSEDTAVYYCARLTTGTFAYWGQGTLVTVSS
VL: DIVMTQSPDSLAVSLGERATINCKSSQSLWDSGNQKNFLTWYQQKPGQPPKLLIYWTSYRESGVPDRFSGSGSGTDFTLTISSLQAEDVAVYYCQNDYFYPLTFGGGTKVEIK
notes: Variable regions only
Kd [2]: 0.98 nM

B10: mAb11 (antibody, V domains shown)
VH: QVQLVQSGAEVKKPGASVKVSCKASGYTFTSYWINWVRQAPGQGLEWMGNIYPGSSITNYNEKFKNRVTMTRDTSTSTVYMELSSLRSEDTAVYYCARLTTGTFAYWGQGTLVTVSS
VL: DIVMTQSPDSLAVSLGERATINCKSSQSLWDSGNQKNFLTWYQQKPGQPPKLLIYWTSYRESGVPDRFSGSGSGTDFTLTISSLQAEDVAVYYCQNDYFYPHTFGGGTKVEIK
notes: Variable regions only
Kd [2]: 0.93 nM

B11: mAb12 (antibody, V domains shown)
VH: QVQLVQSGAEVKKPGASVKVSCKASGYTFTSYWINWVRQAPGQGLEWMGNIYPGSSITNYNEKFKNRVTMTRDTSTSTVYMELSSLRSEDTAVYYCARLTTGTFAYWGQGTLVTVSS
VL: DIVMTQSPDSLAVSLGERATINCKSSQSLWDSTNQKNFLTWYQQKPGQPPKLLIYWTSTRESGVPDRFSGSGSGTDFTLTISSLQAEDVAVYYCQNDYFYPLTFGGGTKVEIK
notes: Variable regions only
Kd [2]: 17.3 nM

B12: mAb13 (antibody, V domains shown)
VH: QVQLVQSGAEVKKPGASVKVSCKASGYTFTSYWINWVRQAPGQGLEWMGNIWPGSSLTNYNEKFKNRVTMTRDTSTSTVYMELSSLRSEDTAVYYCARLLTGTFAYWGQGTLVTVSS
VL: DIVMTQSPDSLAVSLGERATINCKSSQSLWDSGNQKNFLTWYQQKPGQPPKLLIYWTSTRESGVPDRFSGSGSGTDFTLTISSLQAEDVAVYYCQNDYFYPLTFGGGTKVEIK
notes: Variable regions only
Kd [2]: 5.87 nM

B13: mAb14 (antibody, V domains shown)
VH: QVQLVQSGAEVKKPGASVKVSCKASGYTFTSYWINWVRQAPGQGLEWMGNIWPGSSLTNYNEKFKNRVTMTRDTSTSTVYMELSSLRSEDTAVYYCARLLTGTFAYWGQGTLVTVSS
VL: DIVMTQSPDSLAVSLGERATINCKSSQSLWDSGNQKNFLTWYQQKPGQPPKLLIYWTSYRESGVPDRFSGSGSGTDFTLTISSLQAEDVAVYYCQNDYFYPLTFGGGTKVEIK
notes: Variable regions only
Kd [2]: 0.6 nM

B14: mAb15 (human IgG4 kappa, hinge stabilized) (antibody, V domains shown)
VH: QVQLVQSGAEVKKPGASVKVSCKASGYTFTSYWINWVRQAPGQGLEWMGNIWPGSSLTNYNEKFKNRVTMTRDTSTSTVYMELSSLRSEDTAVYYCARLLTGTFAYWGQGTLVTVSS
VL: DIVMTQSPDSLAVSLGERATINCKSSQSLWDSGNQKNFLTWYQQKPGQPPKLLIYWTSYRESGVPDRFSGSGSGTDFTLTISSLQAEDVAVYYCQNDYFYPHTFGGGTKVEIK
notes: also called mAb15-G4; mAb15 (G4)
Kd [2]: 0.49 nM | Kd [3]: < 0.058 nM | kon [3]: 732000 M⁻¹ s⁻¹ | koff [4]: < 4.3e-05 s⁻¹ | Kd [5]: 0.49 nM | koff [5]: 0.000171 s⁻¹ | kon [5]: 349000 M⁻¹ s⁻¹ | Kd [6]: 0.54 nM | koff [6]: 0.000373 s⁻¹ | kon [6]: 694000 M⁻¹ s⁻¹

B15: mAb15 IgG1 AAA (antibody, V domains shown)
VH: QVQLVQSGAEVKKPGASVKVSCKASGYTFTSYWINWVRQAPGQGLEWMGNIWPGSSLTNYNEKFKNRVTMTRDTSTSTVYMELSSLRSEDTAVYYCARLLTGTFAYWGQGTLVTVSS
VL: DIVMTQSPDSLAVSLGERATINCKSSQSLWDSGNQKNFLTWYQQKPGQPPKLLIYWTSYRESGVPDRFSGSGSGTDFTLTISSLQAEDVAVYYCQNDYFYPHTFGGGTKVEIK
notes: also called mAb15-AAA
Kd [3]: < 0.053 nM | kon [3]: 813000 M⁻¹ s⁻¹ | koff [4]: < 4.3e-05 s⁻¹

B16: mAb16 (antibody, V domains shown)
VH: QVQLVQSGAEVKKPGASVKVSCKASGYTFTSYWINWVRQAPGQGLEWMGNIWPGSSLTNYNEKFKNRVTMTRDTSTSTVYMELSSLRSEDTAVYYCARLLTGTFAYWGQGTLVTVSS
VL: DIVMTQSPDSLAVSLGERATINCKSSQSLWDSTNQKNFLTWYQQKPGQPPKLLIYWTSTRESGVPDRFSGSGSGTDFTLTISSLQAEDVAVYYCQNDYFYPLTFGGGTKVEIK
notes: Variable regions only
Kd [2]: 7.51 nM
